The source of these data is US20140243208, “COMPOSITIONS AND METHODS FOR SELECTING APTAMERS” (Mediomics, LLC, published 2014).

Positions count from the first letter of the chain named.

Data set [1] addresses T1, Troponin I (TnI) (Homo sapiens, UniProt P19429 P19429:2-210). In words: ELONA; values only in figure. The settings on record: tags: coated on ELISA plate; label: hybridized biotin-labeled primer.
In data set [2] the target is T2, Alpha-fetoprotein (Homo sapiens, UniProt P02771 P02771:19-609).
T2 sequence: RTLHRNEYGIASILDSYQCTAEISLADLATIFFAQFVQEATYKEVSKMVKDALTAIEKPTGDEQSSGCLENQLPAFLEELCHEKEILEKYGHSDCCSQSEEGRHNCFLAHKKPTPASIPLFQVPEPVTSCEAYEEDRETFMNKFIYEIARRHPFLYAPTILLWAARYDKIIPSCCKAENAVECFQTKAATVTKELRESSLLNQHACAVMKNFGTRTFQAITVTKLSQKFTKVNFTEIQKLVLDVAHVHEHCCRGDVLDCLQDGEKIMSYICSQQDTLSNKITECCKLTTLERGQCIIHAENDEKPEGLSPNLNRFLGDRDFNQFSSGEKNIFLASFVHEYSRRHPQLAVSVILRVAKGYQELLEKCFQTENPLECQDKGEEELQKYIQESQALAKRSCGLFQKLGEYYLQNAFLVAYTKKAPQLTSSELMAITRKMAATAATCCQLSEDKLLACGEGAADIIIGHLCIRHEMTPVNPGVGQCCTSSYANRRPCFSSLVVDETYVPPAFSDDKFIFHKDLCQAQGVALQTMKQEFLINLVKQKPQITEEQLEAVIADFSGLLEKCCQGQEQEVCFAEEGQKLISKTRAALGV
In words: ELONA; specificity control. The conditions noted are these: label: hybridized biotin-labeled primer.

For data set [3], the target named is T3, C-reactive protein (CRP) (Homo sapiens, UniProt P02741 P02741:19-224).
T3 sequence: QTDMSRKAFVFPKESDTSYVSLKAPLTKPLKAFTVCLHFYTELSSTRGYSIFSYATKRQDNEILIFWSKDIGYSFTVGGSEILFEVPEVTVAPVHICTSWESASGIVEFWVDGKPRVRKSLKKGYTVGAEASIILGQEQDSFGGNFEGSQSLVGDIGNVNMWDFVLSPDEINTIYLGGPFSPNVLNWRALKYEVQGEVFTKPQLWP
In words: ELONA; specificity control. The conditions noted are these: chain copies: 5; label: hybridized biotin-labeled primer.

For data set [4], the target named is Serum albumin (Homo sapiens, UniProt P02768 P02768:25-609). The experiment in a line: ELONA; specificity control. The conditions noted are these: label: hybridized biotin-labeled primer.
Data set [5] concerns the target Interleukin-10 (IL-10) (Homo sapiens, UniProt P22301 P22301:19-178). The experiment in a line: ELONA; only IL-10-3 and IL-10-6 of 6 showed potential binding. The conditions noted are these: tags: coated on ELISA plate; chain copies: 2; label: hybridized biotin-labeled primer.
Data set [6] has as its target T1, Troponin I (TnI). The experiment in a line: ELONA; very similar affinity to the other TNI aptamers. The settings on record: tags: coated on ELISA plate; label: hybridized biotin-labeled primer.
In data set [7] the target is T1, Troponin I (TnI). The experiment in a line: ELONA; specificity control. The conditions noted are these: tags: coated on ELISA plate; label: hybridized biotin-labeled primer.

Interleukin-10 (IL-10), sequence (P22301 19-178, one chain of several): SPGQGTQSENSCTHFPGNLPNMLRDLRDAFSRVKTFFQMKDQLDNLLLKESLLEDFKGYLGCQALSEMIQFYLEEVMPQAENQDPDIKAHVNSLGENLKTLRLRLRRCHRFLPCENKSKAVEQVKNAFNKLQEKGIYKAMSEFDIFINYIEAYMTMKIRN
T1 sequence (P19429 2-210, one chain of several): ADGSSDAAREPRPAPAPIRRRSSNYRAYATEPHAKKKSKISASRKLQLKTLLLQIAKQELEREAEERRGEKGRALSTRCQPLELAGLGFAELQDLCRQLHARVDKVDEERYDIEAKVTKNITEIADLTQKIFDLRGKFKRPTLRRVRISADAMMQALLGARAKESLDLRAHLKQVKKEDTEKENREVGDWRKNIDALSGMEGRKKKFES
Serum albumin, sequence (P02768 25-609, one chain of several): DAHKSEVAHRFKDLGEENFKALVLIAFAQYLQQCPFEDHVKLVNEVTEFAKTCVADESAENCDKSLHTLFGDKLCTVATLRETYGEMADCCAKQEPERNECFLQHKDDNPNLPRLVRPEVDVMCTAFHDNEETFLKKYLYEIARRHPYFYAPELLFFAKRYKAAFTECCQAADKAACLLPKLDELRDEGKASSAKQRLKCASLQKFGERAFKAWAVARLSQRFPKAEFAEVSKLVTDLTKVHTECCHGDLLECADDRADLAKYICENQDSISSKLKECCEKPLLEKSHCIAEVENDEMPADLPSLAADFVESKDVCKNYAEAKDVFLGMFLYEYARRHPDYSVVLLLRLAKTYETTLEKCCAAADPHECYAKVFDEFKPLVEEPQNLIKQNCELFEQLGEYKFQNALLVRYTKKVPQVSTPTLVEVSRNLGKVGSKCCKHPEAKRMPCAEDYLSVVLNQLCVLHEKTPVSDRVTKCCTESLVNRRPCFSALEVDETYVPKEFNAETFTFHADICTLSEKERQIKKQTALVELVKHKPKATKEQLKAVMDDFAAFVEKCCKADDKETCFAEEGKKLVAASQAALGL

B1: TNI-CRP3 (ssDNA)
DNA: TAGGTGCTCGACGCTGACCCAGGGGACACCTATCAATCGTCGTGCGGTACTCAGTCGCAGGTCATG
As to B1, the binding result in data set [1] is reported as “binds”.

B2: TNI-4 (ssDNA)
DNA: CTGTCGTTAGTGAAGGTTGCCAAGCGAACTGCGACAGGGGATCCAGGAGACGGCCCCAACGCCATATCACAGACG
For B2, the binding result in data set [2], in data set [3] and in data set [4] was “no binding” in each case.

B3: IL-10-4 (ssDNA)
DNA: TAGGTGCTCGACGCTGACCCCCCAGTCACACCTTATGACCGTCCCGCCACTCAGTCGCAGGTCATG
With B3, the binding result in data set [5] is given as “no binding”.

B4: TNI-1 (= TNI-B1, TNI-N1, TNI-MEDI1) (ssDNA)
DNA: CTGTCGTTAGTGAAGGTTGGCAACAACGACCGGGACTAACGGCAGCAGCGACACCGGTAACGCCATATCACAGACG
Consider B4, for which the binding result in data set [2], in data set [3] and in data set [4] was “no binding” throughout.

B5: TNI-2 (ssDNA)
DNA: B4 DNA with C21T
With B5, in data set [6], the binding result was “binds”.

B6: TNI-CRP4 (ssDNA)
DNA: TAGGTGCTCGACGCTGACGGGCGACACCGAGGGGGCTGGGGCGCGGGTACTCAGTCGCAGGTCATG
For B6, the binding result in data set [1] was “binds”.

B7: IL-10-5 (ssDNA)
DNA: TAGGTGCTCGACGCTGACCCAGGCACACCTATCCAACTGTCACCGGCCACTCAGTCGCAGGTCATG
B7: the binding result in data set [5] is listed as “no binding”.

B8: IL-10-2 (ssDNA)
DNA: TAGGTGCTCGACGCTGACCCAATCCTGACACACCGTATTAAGCCGCGTACTCAGTCGCAGGTCATG
As for B8, in data set [5], the binding result is reported as “no binding”.

B9: TNI-N3 (= TNI-MEDI2) (ssDNA)
DNA: CTGTCGTTAGTGAAGGTTGGCGCAGGAACCTGAACGTTCGACGGGGTCGGCACCTGTAACGCCATATCACAGACG
Regarding B9, in data set [1], the binding result was “binds”.

B10: TNI-CRP1 (ssDNA)
DNA: TAGGTGCTCGACGCTGACCCAGACCCACCAATATATGCCCCGCGGTGTACTCAGTCGCAGGTCATG
Regarding B10, the binding result in data set [1] is recorded as “binds”.

B11: TNI-CRP2 (ssDNA)
DNA: TAGGTGCTCGACGCTGACCCAGGACGGCACCTTAACCGCGCGTGGGCTACTCAGTCGCAGGTCATG
On to B11, for which, in data set [1], the binding result is listed as “binds”.

B12: IL-10-1 (ssDNA)
DNA: TAGGTGCTCGACGCTGACCCAGGGCTACACCTTATCCATTCGCGCGGTACTCAGTCGCAGGTCATG
As to B12, the binding result in data set [5] is on record as “no binding”.

B13: TNI-B2 (= TNI-N2) (ssDNA)
DNA: CTGTCGTTAGTGAAGGTTGCAGGCACGCTGCGATATGTCCAGTTGACCCGGTTTGCCAACGCCATATCACAGACG
On to B13, for which the binding result in data set [1] is listed as “binds”.

B14: TNI-3 (ssDNA)
DNA: CTGTCGTTAGTGAAGGTTGGCGGCGGACCGGAACGAGCGGCAGTCGCAGTCGACCCCAACGCCATATCACAGACG
In the case of B14, the binding result in data set [2], in data set [3] and in data set [4] was “no binding” each time.

B15: TNI-B3 (ssDNA)
DNA: B14 DNA with G35T, G46A
For B15, the binding result in data set [1] is listed as “binds”.

B16: IL-10-6 (ssDNA)
DNA: TAGGTGCTCGACGCTGACCGGGCATTGACACCTTATCGTGGGGTGGGGACTCAGTCGCAGGTCATG
For B16, the binding result in data set [7], in data set [3] and in data set [4] was “no binding” throughout.

B17: TNI-B5 (ssDNA)
DNA: CTGTCGTTAGTGAAGGTTGGCGGCGGACCGGAACGAACGGCAGCAGCGACACCGGTAACGCCATATCACAGACG
For the molecule B17, in data set [1], the binding result was “binds”.

B18: IL-10-3 (ssDNA)
DNA: TAGGTGCTCGACGCTGACCCACGAAAGACACCGCAGTCCCTCCACGCTACTCAGTCGCAGGTCATG
With B18, the binding result in data set [7], in data set [3] and in data set [4] was “no binding” each time.

B19: TNI-B4 (ssDNA)
DNA: CTGTCGTTAGTGAAGGTTGCCCCGGGAACCGAAACTTGCGACCTGTCGTCACCTTGTAACGCCATATCACAGACG
As to B19, the binding result in data set [1] is “binds”.
